The source of these data is patent publication US20100120700A1, “METHODS AND COMPOSITIONS FOR TREATING CERVICAL CANCER” (priority 2000, published 2010).

“Also recorded” adds a separate entry of the source. Where two headings read alike, the source gives them in different places.

The subject of one experiment is human PDZ domains. The experiment in a line: G assay, E6 PL peptides against PDZ domain panel. Particulars: value names the PDZ domain(s) that saturated binding with the E6 peptide; signal classes (A450 nm 3-4 or 4). The procedure:
(1) A PDZ-domain polypeptide is bound to a surface, e.g. a protein binding surface. In a preferred embodiment, a GST/PDZ fusion protein containing one or more PDZ domains is bound to a polystyrene 96-well plate. […] In one embodiment, the GST/PDZ fusion protein is bound via an anti-GST antibody that is coated onto the 96-well plate. Adequate binding to the plate can be achieved when: • a. 100 uL per well of 5 ug/mL goat anti-GST polyclonal antibody (Pierce) in PBS is added to a polystyrene 96-well plate (e.g., Num Polysorb) at 4° C. for 12 hours. • b. The plate is blocked by addition of 200 uL per well of PBS/BSA for 2 hours at 4° C. • c. The plate is washed 3 times with PBS. • d. […]
(3) The binding of the biotinylated peptide to the GST/PDZ fusion protein surface can be detected using a variety of methods and detectors known to one of skill in the art. […] The reaction of the HRP and its substrate is terminated by addition of 100 uL per well of 1M sulfuric acid, and the absorbance of each well of the plate is read at 450 nm.
(4) Specific binding of a PL peptide and a PDZ domain polypeptide is determined by comparing the signal from the well(s) in which the PL peptide and PDZ domain polypeptide are combined, with the background signal(s). […]

Another experiment deals with T1, GST-HPV11E6 (Human papillomavirus 11, UniProt P04019).
T1 construct: made in house; host or cells: E. coli
In words: Modified ELISA, TIP-TIP-IgG binding to full length E6. Also on record: species or system HPV11. Particulars: plate coated with 5 ug/ml GST-E6; FIG. 2.

Experiment [1] deals with GST-HPV18E6 fusion protein (Human papillomavirus type 18, UniProt P06463). The note with it: plate coated with 5 ug/ml GST-E6, unpurified TIP-TIP-IgG supernatant, FIG. 2.
GST-HPV18E6 fusion protein, sequence (P06463 whole entry, the tested form may be a part): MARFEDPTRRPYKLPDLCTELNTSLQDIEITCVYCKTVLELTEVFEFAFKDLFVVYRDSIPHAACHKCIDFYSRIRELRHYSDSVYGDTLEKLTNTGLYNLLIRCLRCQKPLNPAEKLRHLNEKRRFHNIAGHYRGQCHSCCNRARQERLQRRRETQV
Method: (§1) Protocol • 1) Coat plate with 5 ug/ml GST-E6 fusion protein, O/N @4° C. • 2) Dump proteins out and tap dry • 3) Blocking—Add 200 ul per well 2% BSA/PBS, 2 hrs at 4° C. • 4) Prepare PDZ proteins (50:50 mixture of supematant from TIP-TIP-IgG transfection and 2% BSA/PBS) • 5) 3× wash with cold PBS • 6) Add PDZ protein prepared in step 7 or anti-E6 Ab at 1 ug/ml in 2% BSA/PBS (or anti-GST Ab as control). • 7) 3× wash with cold PBS • 8) Add appropriate concentration of enzyme-conjugated detection Ab (anti-hIgG-HRP, anti-goat-HRP, or anti-mouse-HRP) 100 ul per well on ice, 20 minutes at 4° C. • 9) Turn on plate reader and prepare files • 10) 5× wash with Tween wash buffer, avoiding bubbles • 11) Using gloves, add TMB substrate at 100 ul per well • incubate in dark at room temp • check plate periodically (5, 10, & 20 minutes) • take early readings, if necessary, at 650 nm (blue) • at 30 minutes, stop reaction with 100 ul of 1M H2SO4 • take final reading at 450 nm (yellow)

T1 sequence (P04019 whole entry): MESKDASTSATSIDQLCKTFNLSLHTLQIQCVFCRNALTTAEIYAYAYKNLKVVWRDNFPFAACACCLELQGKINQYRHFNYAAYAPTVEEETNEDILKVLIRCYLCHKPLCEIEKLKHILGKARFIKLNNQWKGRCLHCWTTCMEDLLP
Method for GST-HPV11E6: as §1

Regarding “HPV 18: biotinylated 18-20 aa E6 C-terminal peptide of HPV 18, terminal residues E T Q V; RLQRRRETQV (SEQ ID NO: 14)”, in the experiment with human PDZ domains, the “PDZ binding partner (signal 4 and 5 of 0-5)” value was “TIP1 and Magi 1 (PDZ #2)”.

B1: TIP-TIP-IgG fusion protein: two copies of the TIP-1 PDZ domain fused to the hIgG constant region (protein)
chain: QRVEIHKLRQGENLILGFSIGGGIDQDPSQNPFSEDKTDKGIYVTRVSEGGPAEIAGLQIGDKIMQVNGWDMTMVTHDQARKRLTKRSEEVVRLLVTRQSLQKQRVEIHKLRQGENLILGFSIGGGIDQDPSQNPFSEDKTDKGIYVTRVSEGGPAEIAGLQIGDKIMQVNGWDMTMVTHDQARKRLTKRSEEVVRLLVTRQSLQK
modifications: left off: a dimerising Fc or GST
notes: two copies of the TIP-1 PDZ domain fused to the hIgG constant region
On to B1, for which, in the experiment with GST-HPV11E6, the “binding to full length non-oncogenic E6 (HPV11)” value is “did not show any reactivity; also recorded: without binding to non-oncogenic variants”. Besides, the “binding to full length oncogenic E6 (HPV18)” value is recorded as “able to recognize GST-HPV18E6 fusion protein at levels comparable to an antibody generated against HPV18-E6” in experiment [1] and “could specifically recognize full length E6 protein from an oncogenic strain (HPV18)” in experiment [1] (listed as TIP-1).
